Assay results published in US6361998B1, “Efficient culture of stem cells for the production of hemoglobin” (Hemosol Inc., priority 1999, dated 2002).

Experiments:
BaF3 cells = assay: Cytokine-dependency growth of BaF3 cells transfected with human EpoR constructs; format: cell-based, murine; settings: for growth of BaF3 transfectants: no exogenous IL-3
Description: The functionality of the EpoR(t439; R154C) was tested and compared to the wild-type EpoR (wtEpoR) and EpoR(t439) using the BaF3 cell line. The cDNAs encoding these three different EpoRs were subcloned into the pcDNA3.1 expression vector, which provides high-level constitutive expression of proteins in mammalian cells and also contains the neomycin gene for the selection of stable transfectant with G418. The vector constructs were electroporated into BaF3 cells and stable transfectants were isolated in the presence of 600 ug/ml G418. BaF3 transfectants were maintained in RPMI-1640 with 10% FBS and 5% WEHI conditioned medium (a source of murine IL-3), except during the cytokine-dependency studies when cells were maintained in RPMI-1640 plus 10% FBS, along with the indicated cytokines. Growth of the different EpoR transfectants in the presence of either murine IL-3 or two different doses of Epo was compared to that of the parental (non-transfected) BaF3 cells (FIG. 7). […] All three EpoR constructs encode functional receptors that allow expansion of the BaF3 cells in the presence of Epo without exogenous IL-3.

[1] = test system: erythroid-cultured CD34^+lin^- cells; assay: Methylcellulose colony-forming assay after 14 days liquid culture in G418; format: cell-based, human; settings: after 14 days liquid culture with 500 ug/ml G418
Description: Cells transfected with either EpoR(t439; R154C)/pcDNA3.1 or the pcDNA3.1 vector alone were placed in liquid culture (IMDM, 1% BSA, 10 ng/ml rhIL-3, 50 ng/ml SCF and 2 U/ml EPO) in the presence of 500 ug/ml G418 for 14 days. At this time, cells were counted for viability by trypan-blue dye exclusion and methylcellose colony-forming assays were performed in IMDM, 1% methylcellulose, 30% FBS, 1% BSA, 10^−4 M β mercaptoethanol, and […] glutamine, IL-3 (10 ng/ml), SCF (50 ng/ml), EPO (2 U/ml) and 500 ug/ml G418. […] No colonies were detected in the untransfected or “mock” transfected controls. Thus, expression of the EpoR(t439; R154C)/pcDNA3.1 plasmid not only conferred G418 resistance but increased the number of erythroid progenitors detectable after 14 days of liquid culture.

[2] = test system: erythroid-cultured CD34^+lin^- cells; assay: Methylcellulose colony-forming assay two to three days after transfection of cultured erythroid cells; format: cell-based, human; settings: for # of erythroid colonies in EpoR(t439; R154C) transfected samples: BFU-E and CFU-E; for increase in erythroid colonies: versus untransfected or mock transfected control
Description: CD34^+lin^− cells cultured for 7 to 10 days in EPSFM+LDL were washed in EB and subjected to electroporation in the presence of EpoR(t439; R154C)/pcDNA3.1 expression vector as described in Example 3. Two to three days post-transfection, aliquots of untransfected and EpoR(t439; R154C)/pcDNA3.1 transfected cells were counted for viability by trypan-blue dye exclusion and methylcellose colony-forming assays were performed in IMDM, 1% methylcellulose, 30% FBS, 1% BSA, 10^−4 M β mercaptoethanol, and […] glutamine, IL-3 (10 ng/ml), SCF (50 ng/ml) and EPO (2 U/ml).

B1: EpoR(t439; R154C): human EpoR truncated at amino acid 439 with R154C point mutation; constitutively active (SEQ ID NOS 6 and 7) (protein, listed as Homo sapiens)
chain: MDHLGASLWPQVGSLCLLLAGAAWAPPPNLPDPKFESKAALLAARGPEELLCFTERLEDLVCFWEEAASAGVGPGNYSFSYQLEDEPWKLCRLHQAPTARGAVRFWCSLPTADTSSFVPLELRVTAASGAPRYHRVIHINEVVLLDAPVGLVACLADESGHVVLRWLPPPETPMTSHIRYEVDVSAGNGAGSVQRVEILEGRTECVLSNLRGRTRYTFAVRARMAEPSFGGFWSAWSEPVSLLTPSDLDPLILTLSLILVVILVLLTVLALLSHRRALKQKIWPGIPSPESEFEGLFTTHKGNFQLWLYQNDGCLWWSPCTPFTEDPPASLEVLSERCWGTMQAVEPGTDDEGPLLEPVGSEHAQDTYLVLDKWLLPRNPPSEDLPGPGGSVDIVAMDEGSEASSCSSALASKPSPEGASAASFEYTILDPSSQLLRP
growth of BaF3 transfectants (BaF3 cells; 0.02 U/ml Epo): grew in the presence of either 0.02 or 2 U/ml Epo but less than in the presence of IL-3 | growth of BaF3 transfectants (BaF3 cells; 2 U/ml Epo): grew in the presence of either 0.02 or 2 U/ml Epo but less than in the presence of IL-3 | expansion of BaF3 cells (BaF3 cells; absence of exogenous cytokines): supported expansion | functionality of the EpoR (BaF3 cells; conclusion from BaF3 growth): constitutively active form of the EpoR | erythroid colonies compared to pcDNA3.1 vector alone [1]: More erythroid colonies | # of erythroid colonies in EpoR(t439; R154C) transfected samples ([2]; Experiment # 1): 428 | increase in erythroid colonies ([2]; Experiment # 1): +388 | # of erythroid colonies in EpoR(t439; R154C) transfected samples ([2]; Experiment # 2): 522 | increase in erythroid colonies ([2]; Experiment # 2): +98 | # of erythroid colonies in EpoR(t439; R154C) transfected samples ([2]; Experiment # 3): 66 | increase in erythroid colonies ([2]; Experiment # 3): +66
